Assay results: patent US11339209B2, “Compositions, methods, and therapeutic uses related to fusogenic protein minion” (NOVARTIS AG, priority 2016, dated 2022)

T1: Myomaker (Mus musculus, UniProt Q9D1N4)
T1 construct: endogenous in cells; host or cells: Differentiating muscle cells
T1 sequence (Q9D1N4 1-221): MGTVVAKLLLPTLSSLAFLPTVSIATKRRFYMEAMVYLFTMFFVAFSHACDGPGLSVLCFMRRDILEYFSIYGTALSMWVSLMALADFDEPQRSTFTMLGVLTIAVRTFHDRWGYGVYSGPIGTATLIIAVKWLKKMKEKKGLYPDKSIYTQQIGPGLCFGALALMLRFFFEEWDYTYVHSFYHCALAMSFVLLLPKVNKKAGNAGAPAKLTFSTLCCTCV


Key:
MINION^KD C2C12 cells = assay: In vitro reconstitution (complementation) assay of the fusion defect in MINION^KD C2C12 cells; assay type: cell-based, mouse; settings: retroviral cDNA expression, 5 days in differentiation medium, MHC immunofluorescence, MINION tested tagged and untagged
Protocol: For primary myoblasts derived from both embryos and adult mice, around 3000 cells in 50 μl myoblast growth medium (1:1 mixture of DMEM low glucose and Ham's F-10 Nutrient Mix; 20% (v/v) FBS; freshly added 2.5 ng/ml rhFGF) were seeded into each well of a 384-well Collagen-coated PerkinElmer CellCarrier™ plate (6007550) for imaging purposes. The next day, differentiation medium (DMEM high glucose (Gibco® 11995073) with 3% to 5% horse serum) was added to the cells (DM day 0). Differentiation medium was replaced daily. The cells were fixed at DM day 3 and day 4 for immunofluorescence staining. For C2C12 cells, ˜1500-2000 cells were seeded into each well of a 384-well plate (DMEM high glucose with 10% FBS) and around 2×10^5 cells were seeded into each well of a 6-well plate, using C2C12 growth medium (DMEM high glucose with 10% FBS). On the next day, differentiation medium (DMEM high glucose with 2% horse serum) was added to the cells (DM day 0), and differentiation medium was likewise replaced daily. […]
For the cloning of cDNA constructs, the coding sequences (CDS) of mouse MINION (for the 84 aa isoform), human MINION ortholog, mouse tmem8c (myomaker), nanoluc (control A), luciferase (control B), mouse MINION with 1 bp insertion, human MINION with 1 bp deletion, and mouse MINION truncation (39 aa form) were synthesized (IDT) with attB sites at both ends and a consensus Kozak sequence (5′ GCCACC (SEQ ID NO: 94)) before the start codon. […] After expression testing of the two 3F1H-tagged mouse and human MINION constructs, it was noticed that two bands were detected by Western blot with anti-FLAG antibody (FIG. 16). […]
To examine the knockdown efficiency of the mouse MINION transcript, shRNA-encoding lentiviruses were used to infect C2C12 cells. […] Based on an estimated viral titer of 1×10^8 vp/ml (as measured on 293T cells), a virus amount equivalent to MOI30 on 293T cells was used on C2C12 cells. […] Infection efficiency of 70-85% was routinely achieved as judged by FACS analysis, though GFP signal in undifferentiated C2C12 cells was barely discernable by EVOS fluorescence microscopy. […]

Myomaker = molecular target: T1, Myomaker; assay: Co-immunoprecipitation of Minion with Myomaker in differentiating muscle cells; assay type: binding; settings: tagged and untagged Minion, endogenous and overexpressed Myomaker
C2C12 myoblasts = assay: Cell mixing of 10T1/2 fibroblasts with differentiating C2C12 myoblasts; assay type: cell-based, mouse; settings: 10T1/2 fibroblasts mixed with wild-type C2C12 myoblasts (1:2), 3 days in differentiation medium
Source text: Differentiating myoblasts and myotubes are marked by MHC. 10T1/2 fibroblasts were infected with retrovirus expressing GFP and proteins of interest (left, NanoLuc control; middle, mouse Myomaker; right, mouse Minion). DAPI marks nuclei. […] White arrows indicate MHC-positive myotubes that are not fused to fibroblasts. n=2 (eight technical replicates each). 0.7 mm×0.7 mm fields are shown. […] 0.7 mm×0.7 mm fields at ×20 magnification are shown. Control and Minion^KD myoblasts were used. Differentiating myoblasts and myotubes are marked by MHC. 10T1/2 fibroblasts expressing Myomaker were labelled with CellTrace Violet dye before mixing. […]
(§1) Cell labeling was performed according to manufacturer's instructions with slight modifications. […] After the last wash, the cells were counted and diluted to the concentration needed for the final mixing experiment in a 384-well or 24-well plate, and were incubated at 37° C. for 30 min. […]
C3H 10T1/2 fibroblasts were infected with retroviruses encoding GFP and either control, Myomaker or Minion; GFP-positive fibroblasts were then mixed with wild-type C2C12 myoblasts and kept in differentiation medium for 3-4 days. Differentiating myoblasts and myotubes were marked by MHC expression, and fusion of GFP-positive fibroblasts to myotubes was readily detected when Myomaker, but not Minion or control, was expressed (FIG. 28A).

10T1/2 fibroblasts = assay: Heterologous co-expression, syncytia formation between fibroblasts; assay type: cell-based; settings: retroviral expression in 10T1/2 fibroblasts, growth medium
Protocol: In order to infect C2C12 cells and 10T1/2 cells, neat virus was incubated with 8 μg/ml polybrene at 37° C. for 10 min and then added to the cells, which were then incubated for 15 min at 37° C. One round of spin infection was performed using 24-well or 12-well plates at 1100 g for 1-1.5 hours and 32° C. After 4-6 hours, fresh neat virus with polybrene was added and a second round of spin infection was performed. Fresh medium was added to the infected cells to dilute the polybrene. […] Infection efficiency of this two-round infection method was generally >95% over a large range of viral concentrations, therefore FACS was not generally necessary. This strong GFP signal was used to mark the boundary of cells, in addition to phase contrast imaging and nuclear markers (FIGS. 22, 23A-23F); moreover, in cells that were fixed with 4% PFA but not permeabilized with detergents, the GFP signal was higher in the nuclear region, allowing unambiguous delineation of both the cell boundary and nuclei. […]
as §1

Row | Molecule | rescue of the cell fusion defect (MINION^KD C2C12 cells) | physical interaction with Myomaker (co-immunoprecipitation, western blot) (Myomaker) | fusion of fibroblasts expressing the protein to wild-type differentiating myoblasts and myotubes (C2C12 myoblasts) | cell fusion between fibroblasts (multinuclear syncytia) (10T1/2 fibroblasts)
1 | human Minion: human ortholog of MINION, 84 codon ORF, expressed from retroviral cDNA, untagged or C-terminally epitope-tagged (protein, listed as Homo sapiens) MPTPLLPLLLRLLLSRLLLPAARLARQYLLPLLRRLARRLGSQDMREALLGCLLFILSQRHSPDAGEASRVDRLERRERLGPQK | strongly reconstituted cell fusion | – | – | –
2 | mouse MINION: 84 aa mouse microprotein inducer of fusion, expressed from retroviral cDNA, untagged or C-terminally 3×FLAG-1×HA-tagged (protein, listed as Mus musculus) MPVPLLPMVLRSLLSRLLLPVARLARQHLLPLLRRLARRLSSQDMREALLSCLLFVLSQQQPPDSGEASRVDHSQRKERLGPQK | robustly rescued fusion | no detectable physical interaction | failed to do so | neither Myomaker nor Minion alone (FIG. 21D) was sufficient
3 | Myomaker: muscle-specific transmembrane protein; mouse tmem8c CDS expressed from retroviral vector (protein) MGTVVAKLLLPTLSSLAFLPTVSIATKRRFYMEAMVYLFTMFFVAFSHACDGPGLSVLCFMRRDILEYFSIYGTALSMWVSLMALADFDEPQRSTFTMLGVLTIAVRTFHDRWGYGVYSGPIGTATLIIAVKWLKKMKEKKGLYPDKSIYTQQIGPGLCFGALALMLRFFFEEWDYTYVHSFYHCALAMSFVLLLPKVNKKAGNAGAPAKLTFSTLCCTCV | incapable of rescuing the fusion defect | – | fused with wild-type differentiating myoblasts and myotubes | neither Myomaker nor Minion alone (FIG. 21D) was sufficient
